Results taken from paper PMC11417369, “DNA sequence and chromatin differentiate sequence-specific transcription factor binding in the human malaria parasite Plasmodium falciparum”.

T1: AP2-G D1 (Plasmodium falciparum, UniProt Q8I5I9 2123-2245)
T1 sequence: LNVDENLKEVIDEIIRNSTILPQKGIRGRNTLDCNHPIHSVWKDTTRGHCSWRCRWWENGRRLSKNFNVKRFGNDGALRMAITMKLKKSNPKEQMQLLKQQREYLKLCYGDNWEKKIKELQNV


What follows are binders tested against T1, AP2-G D1 (assay: gcPBM; about 25 ug protein; PBS, 1% milk, 0.2 mg/ml BSA, salmon testes DNA, 0.03% Triton X-100). Details: tags: N-terminal GST (pGEX-4T-1), kept; label: surface-attached array probe.

| Binder | binding signal |
| --- | --- |
| XGTACX_site4821 (dsDNA) DNA 1: AATAAAACATCATCATGTACAAAATTCGTCTTTGTA DNA 2: TACAAAGACGAATTTTGTACATGATGATGTTTTATT | 10.6 ln median PBM intensity, better of two orientations |
| XGTACX_site8657 (dsDNA) DNA 1: ATTAAGATGTATATATGTACATATTACATACATATA DNA 2: TATATGTATGTAATATGTACATATATACATCTTAAT | 11.4 ln median PBM intensity, better of two orientations |
| XGTACX_site2720 (dsDNA) DNA 1: TCCTATTTTATATAATGTACATAAATATATTACATA DNA 2: TATGTAATATATTTATGTACATTATATAAAATAGGA | 11.5 ln median PBM intensity, better of two orientations |
| XGTACX_site5139 (dsDNA) DNA 1: TATATACAGAATATATGTACATATTCATTTTATATT DNA 2: AATATAAAATGAATATGTACATATATTCTGTATATA | 11.4 ln median PBM intensity, better of two orientations |
| XGTACX_site84 (dsDNA) DNA 1: AATTAAATGGATAAATGTACATATGTGAATATATTT DNA 2: AAATATATTCACATATGTACATTTATCCATTTAATT | 11.4 ln median PBM intensity, better of two orientations |
| XGTACX_site2945 (dsDNA) DNA 1: AAGCATAAAGTATATAGTACATATATATATATATAT DNA 2: ATATATATATATATATGTACTATATACTTTATGCTT | 11.3 ln median PBM intensity, better of two orientations |
| XGTACX_site8539 (dsDNA) DNA 1: AAATAAAGTAAAATATGTACATAAATTAAAACACAT DNA 2: ATGTGTTTTAATTTATGTACATATTTTACTTTATTT | 11.6 ln median PBM intensity, better of two orientations |
| XGTACX_site5503 (dsDNA) DNA 1: TATATATATATAGGTTGTACATTTTGATGTTTACGT DNA 2: ACGTAAACATCAAAATGTACAACCTATATATATATA | 11.5 ln median PBM intensity, better of two orientations |
| XGTACX_site4915 (dsDNA) DNA 1: AACGAAAACACTACGTGTACCAAACGTCCTACTAAC DNA 2: GTTAGTAGGACGTTTGGTACACGTAGTGTTTTCGTT | 11.5 ln median PBM intensity, better of two orientations |
| XGTACX_site6680 (dsDNA) DNA 1: TTTGTATATTATTTTAGTACATAACATTGAAGATAT DNA 2: ATATCTTCAATGTTATGTACTAAAATAATATACAAA | 11.4 ln median PBM intensity, better of two orientations |
| XGTACX_site2966 (dsDNA) DNA 1: AAACATATAAATCACGGTACACATTATTGAAAGTGT DNA 2: ACACTTTCAATAATGTGTACCGTGATTTATATGTTT | 11.6 ln median PBM intensity, better of two orientations |
| XGTACX_site150 (dsDNA) DNA 1: ATATACATATATATATGTACTGAAAAGAAAAGAATT DNA 2: AATTCTTTTCTTTTCAGTACATATATATATGTATAT | 11.4 ln median PBM intensity, better of two orientations |
| XGTACX_site1414 (dsDNA) DNA 1: CTATAATATTATAACAGTACATAATATTATATATAT DNA 2: ATATATATAATATTATGTACTGTTATAATATTATAG | 10.8 ln median PBM intensity, better of two orientations |
| XGTACX_site583 (dsDNA) DNA 1: ATAATATATATATAGTGTACATTTGAATATATTTGA DNA 2: TCAAATATATTCAAATGTACACTATATATATATTAT | 11.6 ln median PBM intensity, better of two orientations |
| XGTACX_site8691 (dsDNA) DNA 1: AAAAATATTTTGGTTTGTACATATATTTTTACAATA DNA 2: TATTGTAAAAATATATGTACAAACCAAAATATTTTT | 11.5 ln median PBM intensity, better of two orientations |
| XGTACX_site1737 (dsDNA) DNA 1: AGATCTATTATTTTTTGTACTTATATATAAACTTAA DNA 2: TTAAGTTTATATATAAGTACAAAAAATAATAGATCT | 11.5 ln median PBM intensity, better of two orientations |
| XGTACX_site5737 (dsDNA) DNA 1: TAATGGAATACATATAGTACATAATATTACATACAT DNA 2: ATGTATGTAATATTATGTACTATATGTATTCCATTA | 11.3 ln median PBM intensity, better of two orientations |
| XGTACX_site5309 (dsDNA) DNA 1: CTATACAATAAAAATTGTACATACATATATGTTATA DNA 2: TATAACATATATGTATGTACAATTTTTATTGTATAG | 11.3 ln median PBM intensity, better of two orientations |
